# In the RNAGym collection of RNA variant scans (doi:10.1021/acssynbio.7b00057):
# B1: Pistol ribozyme (parent)
# chain: GGGUCGUUGUUCCAUAAUCGCGUGGAUAUGGCACGCAAGUUUCUACCGGGCACCGUAAAUGUCCGACUGGAGCCGUUCGGGCGGCUAUAAACAGACCUCAGGCCCGAAGCGUGGCGGCACCUGCCGCCGGUGGUAAAAAAGAUCGGAAGAGCACACGUCU
# Variants of: B1
# Test: aptazyme ON/OFF ratio, guanine; higher = stronger switching; co-transcriptional cleavage with and without guanine
row,Variant,aptazyme ON/OFF ratio
1,GGGUCGUGGAAAGAUAAUCGCGUGGAUAUGGCACGCAAGUUUCUACCGGGCACCGUAAAUGUCCGACUGGAGCCGUUCGGGCGGCUAUAAACAGACCUCAGGCCCGAAGCGUGGCGGCACCUGCCGCCGGUGGUAAAAAAGAUCGGAAGAGCACACGUCU,1.11
2,GGGUCGUGGAAAUAUAAUCGCGUGGAUAUGGCACGCAAGUUUCUACCGGGCACCGUAAAUGUCCGACUGGAGCCGUUCGGGCGGCUAUAAACAGACCUCAGGCCCGAAGCGUGGCGGCACCUGCCGCCGGUGGUAAAAAAGAUCGGAAGAGCACACGUCU,1.13
3,GGGUCGUGGAAAAAUAAUCGCGUGGAUAUGGCACGCAAGUUUCUACCGGGCACCGUAAAUGUCCGACUGGAGCCGUUCGGGCGGCUAUAAACAGACCUCAGGCCCGAAGCGUGGCGGCACCUGCCGCCGGUGGUAAAAAAGAUCGGAAGAGCACACGUCU,1.19
4,GGGUCGUGGAUCAAUAAUCGCGUGGAUAUGGCACGCAAGUUUCUACCGGGCACCGUAAAUGUCCGACUGGAGCCGUUCGGGCGGCUAUAAACAGACCUCAGGCCCGAAGCGUGGCGGCACCUGCCGCCGGUGGUAAAAAAGAUCGGAAGAGCACACGUCU,1.14
5,GGGUCGUGGAUCUAUAAUCGCGUGGAUAUGGCACGCAAGUUUCUACCGGGCACCGUAAAUGUCCGACUGGAGCCGUUCGGGCGGCUAUAAACAGACCUCAGGCCCGAAGCGUGGCGGCACCUGCCGCCGGUGGUAAAAAAGAUCGGAAGAGCACACGUCU,1.19
6,GGGUCGUGGAUCGAUAAUCGCGUGGAUAUGGCACGCAAGUUUCUACCGGGCACCGUAAAUGUCCGACUGGAGCCGUUCGGGCGGCUAUAAACAGACCUCAGGCCCGAAGCGUGGCGGCACCUGCCGCCGGUGGUAAAAAAGAUCGGAAGAGCACACGUCU,1.12
7,GGGUCGUGGAAGUAUAAUCGCGUGGAUAUGGCACGCAAGUUUCUACCGGGCACCGUAAAUGUCCGACUGGAGCCGUUCGGGCGGCUAUAAACAGACCUCAGGCCCGAAGCGUGGCGGCACCUGCCGCCGGUGGUAAAAAAGAUCGGAAGAGCACACGUCU,1.07
8,GGGUCGUGGAAGAAUAAUCGCGUGGAUAUGGCACGCAAGUUUCUACCGGGCACCGUAAAUGUCCGACUGGAGCCGUUCGGGCGGCUAUAAACAGACCUCAGGCCCGAAGCGUGGCGGCACCUGCCGCCGGUGGUAAAAAAGAUCGGAAGAGCACACGUCU,1.12
9,GGGUCGUGGAAGGAUAAUCGCGUGGAUAUGGCACGCAAGUUUCUACCGGGCACCGUAAAUGUCCGACUGGAGCCGUUCGGGCGGCUAUAAACAGACCUCAGGCCCGAAGCGUGGCGGCACCUGCCGCCGGUGGUAAAAAAGAUCGGAAGAGCACACGUCU,1.21
10,GGGUCGUGGACGCAUAAUCGCGUGGAUAUGGCACGCAAGUUUCUACCGGGCACCGUAAAUGUCCGACUGGAGCCGUUCGGGCGGCUAUAAACAGACCUCAGGCCCGAAGCGUGGCGGCACCUGCCGCCGGUGGUAAAAAAGAUCGGAAGAGCACACGUCU,1.21
11,GGGUCGUGGACUCAUAAUCGCGUGGAUAUGGCACGCAAGUUUCUACCGGGCACCGUAAAUGUCCGACUGGAGCCGUUCGGGCGGCUAUAAACAGACCUCAGGCCCGAAGCGUGGCGGCACCUGCCGCCGGUGGUAAAAAAGAUCGGAAGAGCACACGUCU,1.03
12,GGGUCGUGGACACAUAAUCGCGUGGAUAUGGCACGCAAGUUUCUACCGGGCACCGUAAAUGUCCGACUGGAGCCGUUCGGGCGGCUAUAAACAGACCUCAGGCCCGAAGCGUGGCGGCACCUGCCGCCGGUGGUAAAAAAGAUCGGAAGAGCACACGUCU,1.18
13,GGGUCGUGGAACUAUAAUCGCGUGGAUAUGGCACGCAAGUUUCUACCGGGCACCGUAAAUGUCCGACUGGAGCCGUUCGGGCGGCUAUAAACAGACCUCAGGCCCGAAGCGUGGCGGCACCUGCCGCCGGUGGUAAAAAAGAUCGGAAGAGCACACGUCU,1.17
14,GGGUCGUGGAACAAUAAUCGCGUGGAUAUGGCACGCAAGUUUCUACCGGGCACCGUAAAUGUCCGACUGGAGCCGUUCGGGCGGCUAUAAACAGACCUCAGGCCCGAAGCGUGGCGGCACCUGCCGCCGGUGGUAAAAAAGAUCGGAAGAGCACACGUCU,1.2
15,GGGUCGUGGAACGAUAAUCGCGUGGAUAUGGCACGCAAGUUUCUACCGGGCACCGUAAAUGUCCGACUGGAGCCGUUCGGGCGGCUAUAAACAGACCUCAGGCCCGAAGCGUGGCGGCACCUGCCGCCGGUGGUAAAAAAGAUCGGAAGAGCACACGUCU,1.07
16,GGGUCGUGGAACCAUAAUCGCGUGGAUAUGGCACGCAAGUUUCUACCGGGCACCGUAAAUGUCCGACUGGAGCCGUUCGGGCGGCUAUAAACAGACCUCAGGCCCGAAGCGUGGCGGCACCUGCCGCCGGUGGUAAAAAAGAUCGGAAGAGCACACGUCU,1.71
17,GGGUCGUGGACCCAUAAUCGCGUGGAUAUGGCACGCAAGUUUCUACCGGGCACCGUAAAUGUCCGACUGGAGCCGUUCGGGCGGCUAUAAACAGACCUCAGGCCCGAAGCGUGGCGGCACCUGCCGCCGGUGGUAAAAAAGAUCGGAAGAGCACACGUCU,1.02
18,GGGUCGUGGACGUAUAAUCGCGUGGAUAUGGCACGCAAGUUUCUACCGGGCACCGUAAAUGUCCGACUGGAGCCGUUCGGGCGGCUAUAAACAGACCUCAGGCCCGAAGCGUGGCGGCACCUGCCGCCGGUGGUAAAAAAGAUCGGAAGAGCACACGUCU,1.33

row,Variant,aptazyme ON/OFF ratio
1,GGGUCGUGGACGGAUAAUCGCGUGGAUAUGGCACGCAAGUUUCUACCGGGCACCGUAAAUGUCCGACUGGAGCCGUUCGGGCGGCUAUAAACAGACCUCAGGCCCGAAGCGUGGCGGCACCUGCCGCCGGUGGUAAAAAAGAUCGGAAGAGCACACGUCU,1.33
2,GGGUCGUGGACGAAUAAUCGCGUGGAUAUGGCACGCAAGUUUCUACCGGGCACCGUAAAUGUCCGACUGGAGCCGUUCGGGCGGCUAUAAACAGACCUCAGGCCCGAAGCGUGGCGGCACCUGCCGCCGGUGGUAAAAAAGAUCGGAAGAGCACACGUCU,1.13
3,GGGUCGUGGAUUCAUAAUCGCGUGGAUAUGGCACGCAAGUUUCUACCGGGCACCGUAAAUGUCCGACUGGAGCCGUUCGGGCGGCUAUAAACAGACCUCAGGCCCGAAGCGUGGCGGCACCUGCCGCCGGUGGUAAAAAAGAUCGGAAGAGCACACGUCU,1.17
4,GGGUCGUGGACUAAUAAUCGCGUGGAUAUGGCACGCAAGUUUCUACCGGGCACCGUAAAUGUCCGACUGGAGCCGUUCGGGCGGCUAUAAACAGACCUCAGGCCCGAAGCGUGGCGGCACCUGCCGCCGGUGGUAAAAAAGAUCGGAAGAGCACACGUCU,1.2
5,GGGUCGUGGACUUAUAAUCGCGUGGAUAUGGCACGCAAGUUUCUACCGGGCACCGUAAAUGUCCGACUGGAGCCGUUCGGGCGGCUAUAAACAGACCUCAGGCCCGAAGCGUGGCGGCACCUGCCGCCGGUGGUAAAAAAGAUCGGAAGAGCACACGUCU,1.14
6,GGGUCGUGGACUGAUAAUCGCGUGGAUAUGGCACGCAAGUUUCUACCGGGCACCGUAAAUGUCCGACUGGAGCCGUUCGGGCGGCUAUAAACAGACCUCAGGCCCGAAGCGUGGCGGCACCUGCCGCCGGUGGUAAAAAAGAUCGGAAGAGCACACGUCU,1.28
7,GGGUCGUGGAAGCAUAAUCGCGUGGAUAUGGCACGCAAGUUUCUACCGGGCACCGUAAAUGUCCGACUGGAGCCGUUCGGGCGGCUAUAAACAGACCUCAGGCCCGAAGCGUGGCGGCACCUGCCGCCGGUGGUAAAAAAGAUCGGAAGAGCACACGUCU,1.14
8,GGGUCGUGGAAUCAUAAUCGCGUGGAUAUGGCACGCAAGUUUCUACCGGGCACCGUAAAUGUCCGACUGGAGCCGUUCGGGCGGCUAUAAACAGACCUCAGGCCCGAAGCGUGGCGGCACCUGCCGCCGGUGGUAAAAAAGAUCGGAAGAGCACACGUCU,1.28
9,GGGUCGUGGAAACAUAAUCGCGUGGAUAUGGCACGCAAGUUUCUACCGGGCACCGUAAAUGUCCGACUGGAGCCGUUCGGGCGGCUAUAAACAGACCUCAGGCCCGAAGCGUGGCGGCACCUGCCGCCGGUGGUAAAAAAGAUCGGAAGAGCACACGUCU,1.12
10,GGGUCGUGGACAAAUAAUCGCGUGGAUAUGGCACGCAAGUUUCUACCGGGCACCGUAAAUGUCCGACUGGAGCCGUUCGGGCGGCUAUAAACAGACCUCAGGCCCGAAGCGUGGCGGCACCUGCCGCCGGUGGUAAAAAAGAUCGGAAGAGCACACGUCU,1.13
11,GGGUCGUGGACAGAUAAUCGCGUGGAUAUGGCACGCAAGUUUCUACCGGGCACCGUAAAUGUCCGACUGGAGCCGUUCGGGCGGCUAUAAACAGACCUCAGGCCCGAAGCGUGGCGGCACCUGCCGCCGGUGGUAAAAAAGAUCGGAAGAGCACACGUCU,1.12
12,GGGUCGUGGACAUAUAAUCGCGUGGAUAUGGCACGCAAGUUUCUACCGGGCACCGUAAAUGUCCGACUGGAGCCGUUCGGGCGGCUAUAAACAGACCUCAGGCCCGAAGCGUGGCGGCACCUGCCGCCGGUGGUAAAAAAGAUCGGAAGAGCACACGUCU,1.14
13,GGGUCGUGGAAUAAUAAUCGCGUGGAUAUGGCACGCAAGUUUCUACCGGGCACCGUAAAUGUCCGACUGGAGCCGUUCGGGCGGCUAUAAACAGACCUCAGGCCCGAAGCGUGGCGGCACCUGCCGCCGGUGGUAAAAAAGAUCGGAAGAGCACACGUCU,1.3
14,GGGUCGUGGAAUGAUAAUCGCGUGGAUAUGGCACGCAAGUUUCUACCGGGCACCGUAAAUGUCCGACUGGAGCCGUUCGGGCGGCUAUAAACAGACCUCAGGCCCGAAGCGUGGCGGCACCUGCCGCCGGUGGUAAAAAAGAUCGGAAGAGCACACGUCU,1.17
15,GGGUCGUGGAAUUAUAAUCGCGUGGAUAUGGCACGCAAGUUUCUACCGGGCACCGUAAAUGUCCGACUGGAGCCGUUCGGGCGGCUAUAAACAGACCUCAGGCCCGAAGCGUGGCGGCACCUGCCGCCGGUGGUAAAAAAGAUCGGAAGAGCACACGUCU,1.14
16,GGGUCGUGGAUUGAUAAUCGCGUGGAUAUGGCACGCAAGUUUCUACCGGGCACCGUAAAUGUCCGACUGGAGCCGUUCGGGCGGCUAUAAACAGACCUCAGGCCCGAAGCGUGGCGGCACCUGCCGCCGGUGGUAAAAAAGAUCGGAAGAGCACACGUCU,1.32
17,GGGUCGUGGAUUUAUAAUCGCGUGGAUAUGGCACGCAAGUUUCUACCGGGCACCGUAAAUGUCCGACUGGAGCCGUUCGGGCGGCUAUAAACAGACCUCAGGCCCGAAGCGUGGCGGCACCUGCCGCCGGUGGUAAAAAAGAUCGGAAGAGCACACGUCU,1.3
18,GGGUCGUGGAUUAAUAAUCGCGUGGAUAUGGCACGCAAGUUUCUACCGGGCACCGUAAAUGUCCGACUGGAGCCGUUCGGGCGGCUAUAAACAGACCUCAGGCCCGAAGCGUGGCGGCACCUGCCGCCGGUGGUAAAAAAGAUCGGAAGAGCACACGUCU,1.32
